The results in this text go back to patent publication US12127562B2, “Methods and compositions that increase pesticidal activity for FR901228” (PRO FARM GROUP, INC., priority 2020, dated 2024).

The test has as its system Beet army worm (Spodoptera exigua). The test is described as follows: Beet army worm diet overlay assay (insecticidal activity). Type of test: in vivo. The settings on record: for LC50: Spodoptera exigua, MW 540 concentration 50 μg/mL, protein concentration 0 mg/mL; for LC50 (μg/mL MW 540): Table 4, heated, MW 540 concentration 0 μg/mL, protein concentration 5 mg/mL; for insecticidal activity (in words): text summary, compared to MW 540 alone. From the text: The present inventors evaluated whether these two proteins can form conjugates with MW 540 and whether the conjugate has the same insecticidal activity as MW 540 alone. One skilled in the art knows that protein purification often uses polyhistidine-tags to assist with the concentration and removal of desired proteins from cellular material. The two protein sequences were cloned into an expression vector (pET26b(+)) and over-expressed in E. coli BL21 cells with a His tag added to the C-terminus of the sequence. In other words, His-tagged HtpG and DnaK from B. rinojensis A396 were overexpressed in E. coli and were purified by immobilized metal ion affinity chromatography.
After mixing MW 540 with HtpG and/or DnaK, heat was applied to the mixture to from disulfide bond conjugates and the end-product was evaluated and its insecticidal activity determined.
Table 1's numbers are expressed as protein concentrations as μg/mL. Subsequently, the insecticidal activity of the end products was evaluated using Beet army worm diet overlay assay known in the art.

Converted amounts (≈) assume the structure as drawn. “Also recorded” adds a separate entry of the source. Like-named read-outs stand apart in the source and are kept apart here.

`C/C=C1\NC(=O)[C@H]2CSSCC/C=C/[C@H](CC(=O)N[C@H](C(C)C)C(=O)N2)OC(=O)[C@H](C(C)C)NC1=O` [MW 540, romidepsin, reference compound]: the LC50 is, setting by setting: (read-out: LC50 (μg/mL MW 540), Table 2) 0.27 µg/mL (≈ 0.499 µM); (read-out: LC50 (μg/mL MW 540), Table 3) 0.35 µg/mL (≈ 0.647 µM); (read-out: LC50 (μg/mL MW 540), Table 4, unheated) 0.43 µg/mL (≈ 0.795 µM).

B1: DnaK: Chaperone protein DnaK from Burkholderia rinojensis A396 (SEQ ID No. 2), His-tagged, overexpressed in E. coli (protein)
chain: MGKIIGIDLGTTNSCVAVMEGNQVKVIENSEGARTTPSIIAYMDDNEVLVGAPAKRQSVTNPRNTLFAVKRLIGRRFEEKEVQKDIGLMPYAIIKADNGDAWVEAHGDKLAPPQVSAEVLRKMKKTAEDYLGEPVTEAVITVPAYFNDSQRQATKDAGRIAGLEVKRIINEPTAAALAFGLDKAEKGDRKIAVYDLGGGTFDVSIIEIADVDGEMQFEVLSTNGDTFLGGEDFDQRIIDYIIGEFKKEQGVDLSKDVLALQRLKEAAEKAKIELSSGQQTEINLPYITADASGPKHLNLKITRAKLEALVEELVERTIEPCRIAIKDAGVKVSDIDDVILVGGQTRMPKVLEKVKEFFGKDPRRDVNPDEAVAVGAAIQGQVLSGDRKDVLLLDVTPLSLGIETLGGVMTKMINKNTTIPTKHAQVYSTADDNQGAVTIKVFQGEREMAAGNKLLGEFNLEGIPPAPRGVPQIEVTFDIDANGILHVGAKDKATGKENKITIKANSGLSEAEIDQMIKDAEANAAEDHKLRELADSRNQGDALVHSTKKAVAEYGDKLDAGEKDKIEAALKELEDVLKNTSADKAAIDAKIEALSTASQKLGEKMYADMQAQQAGAAGAAGAAEGAAHGGAQQADDVVDADFKEVKKD
modifications: His tag; Burkholderia rinojensis A396
For B1, the “LC50 (μg/mL MW 540)” value is on record as “No Activity” and the “insecticidal activity (in words)” value was “does not exhibit insecticidal activity; also recorded: did not show insecticidal activity”.

B2: HtpG: Chaperone protein HtpG from Burkholderia rinojensis A396 (SEQ ID No. 1), His-tagged, overexpressed in E. coli (protein)
chain: MTQQTMSFQAEVKQLLHLMIHSLYSNKEIFLRELVSNASDAADKLRFEALENGALYENDPNLRIRIGFDPAARTLTIDDNGIGMSRDEAIANLGTIARSGTKEFFSKLSGDQQKDAALIGQFGVGFYSGFIVADRITVETRRAGLPASEGVRWESGGEGDFSIDAIERAARGTTITLHLREGEDELLSAHRLKSIVRKYSDHVALPILMQQEAWDAEKGEMVAKDEDETVNQASALWTRAKSEITDEQYQQFYQHLAHDHQNPLAWTHNRVEGRSEYTQLLYVPSHAPFDLWNRDYRGGLKLYVKRVFIMDDAEQLLPQYLRFVKGVVDSADLPLNVSREILQESRDVKAIREGVTKRALSMLEELANAEDDAGKEQYRTFWSAFGQVLKEGVGEDQANRERVAKLVRFASTHGGTDAQDVSLADYVARMKPEQTRIYYVTADTWQAATHSPHLEVFRKKGVEVLLLTDRVDEWMLSYLQEFDGKPLASVARGDLDLGALDDAEKKAQEETGEAFKPLVEKMKEALGDKAKDVRVTFRLTDSPSCLVADDHDMSGYLQRMLKAAGQSGPAMQPILEVNPEHPLVKQLQADSPEFGDWCHLLFDQALLAEGGALEDPASFVKRTNTLLLSRAA
modifications: His tag; Burkholderia rinojensis A396
With B2, the “LC50 (μg/mL MW 540)” value is “No Activity” and the “insecticidal activity (in words)” value is “did not show insecticidal activity”. Under “listed as HtPG”, the “insecticidal activity (in words)” value is given as “does not exhibit insecticidal activity”.
